Source: US6140052, “cMYC is regulated by Tcf-4” (The Johns Hopkins University, dated 1998)

T1: hTcf-4 (endogenous, in nuclear extracts or cells) (human)
T1 chain: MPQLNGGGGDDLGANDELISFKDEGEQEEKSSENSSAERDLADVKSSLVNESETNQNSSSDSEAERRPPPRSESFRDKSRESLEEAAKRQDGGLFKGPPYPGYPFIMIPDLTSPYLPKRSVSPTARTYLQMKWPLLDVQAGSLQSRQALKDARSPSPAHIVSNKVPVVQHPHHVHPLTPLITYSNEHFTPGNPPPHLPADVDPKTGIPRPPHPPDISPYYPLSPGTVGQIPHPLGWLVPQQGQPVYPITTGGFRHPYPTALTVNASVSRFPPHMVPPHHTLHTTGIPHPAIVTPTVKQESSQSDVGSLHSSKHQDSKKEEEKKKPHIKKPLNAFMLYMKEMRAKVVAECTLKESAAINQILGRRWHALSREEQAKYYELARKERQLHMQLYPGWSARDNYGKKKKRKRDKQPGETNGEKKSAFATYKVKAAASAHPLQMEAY

B1: β-catenin (endogenous, human colorectal cancer cell lines HT29, SW480) (other)
chain: ATQADLMELDMAMEPDRKAAVSHWQQQSYLDSGIHSGATTTAPSLSGKGNPEEEDVDTSQVLYEWEQGFSQSFTQEQVADIDGQYAMTRAQRVRAAMFPETLDEGMQIPSTQFDAAHPTNVQRLAEPSQMLKHAVVNLINYQDDAELATRAIPELTKLLNDEDQVVVNKAAVMVHQLSKKEASRHAIMRSPQMVSAIVRTMQNTNDVETARCTAGTLHNLSHHREGLLAIFKSGGIPALVKMLGSPVDSVLFYAITTLHNLLLHQEGAKMAVRLAGGLQKMVALLNKTNVKFLAITTDCLQILAYGNQESKLIILASGGPQALVNIMRTYTYEKLLWTTSRVLKVLSVCSSNKPAIVEAGGMQALGLHLTDPSQRLVQNCLWTLRNLSDAATKQEGMEGLLGTLVQLLGSDDINVVTCAAGILSNLTCNNYKNKMMVCQVGGIEALVRTVLRAGDREDITEPAICALRHLTSRHQEAEMAQNAVRLHYGLPVVVKLLHPPSHWPLIKATVGLIRNLALCPANHAPLREQGAIPRLVQLLVRAHQDTQRRTSMGGTQQQFVEGVRMEEIVEGCTGALHILARDVHNRIVIRGLNTIPLFVQLLYSPIENIQRVAAGVLCELAQDKEAAEAIEAEGATAPLTELLHSRNEGVATYAAAVLFRMSEDKPQDYKKRLSVELTSSLFRTEPMAWNETADLGLDIGAQGEPLGYRQDDPSYRSFHSGGYGQDALGMDPMMEHEMGGHHPGADYPVDGLPDLGHAQDLMDGLPPGDSNQLAWFDTDL

Assays:
[1] = biological target: Myc-tagged hTcf-4 (epitope-tagged hTcf-4 in expression vector pCDNA) (human)
[2] = biological target: T1, hTcf-4 (endogenous, in nuclear extracts …); assay: gel retardation of nuclear extracts of HT29-APC1 cells after 20 h Zn++ induction of APC
Method: Figure 2C: Figure 4: FIG. 4. Constitutive presence of β-catenin-hTcf-4 complexes in APC^{-/-} cells. Gel retardation assays were performed on nuclear extracts from the indicated cell lines before and after a 20-hour exposure to Zn^++. Samples in lanes 1, 4, 7, 10 were incubated under standard conditions. To the samples in lanes 2, 5, 8, 11, 0.25 μg, anti β-catenin was added. To the samples in lanes 3, 6, 9, 12, 0.25 μg of a control (human CD4) antibody was added. N.S., nonspecific band also observed with mutant (nonbinding) probe (lane Mt).
Gel retardation assays were performed as described elsewhere (7). Extracts were prepared from intact nuclei that were washed four times to avoid contamination with cytoplasmic β-catenin. As the optimal Tcf/Lef probe, we used a double-stranded 15-mer […] (SEQ ID NO: 12); the control probe was […] (SEQ ID NO:13). (All oligonudeotides were from Isogene, Holland). The β-catenin antibody was purchased from Transduction Laboratories (Lexington, Ky.). A typical binding reaction contained 3 μg nuclear protein, 0.1 ng radiolabeled probe, 100 ng of dIdC, in 25 μl of binding buffer (60 mm KCl, 1 mM EDTA, 1 mM DTT, 10% glycerol). Samples were incubated for 20 min at room temperature, antibody was added, and the samples incubated 20 min further.

Molecule | CRT reporter activity in 293 cells cotransfected with a Tcf-4 expression vector [1] [fold] | decrease of the complex relative to uncomplexed hTcf-4 after Zn++ induction of APC [2] [fold]
β-Cat S33Y (mutant β-catenin from SW48) (from UniProt P35222) | 6 | –
β-Cat Δ45 (mutant β-catenin from HCT116, deletion of Ser-45) (from UniProt P35222) | 6 | –
B1 | – | 6
